The record followed here is a protein production outcome set (Wang et al. 2014).

The data set in a line: label from the status in PepcDB records.

Consider “MAETSALPTGFGELEVLAVGMVLLVEALSGLSLNTLTIFSFCKTPELRTPCHLLVLSLALADSGISLNALVAATSSLLRRWPYGSDGCQAHGFQGFVTALASICSSAAIAWGRYHHYCTRSQLAWNSAVSLVLFVWLSSAFWAALPLLGWGHYDYEPLGTCCTLDYSKGDRNFTSFLFTMSFFNFAMPLFITITSYSLMEQKLGKSGHLQVNTTLPARTLLLGWGPYAILYLYAVIADVTSISPKLQMVPALIAKMVPTINAINYALGNEMVCRGIWQCLSPQKREKDRTK”, for which the protein production result is “failed”.

“MAEVHVIGQIMGASGFSESSLFCKWGIHTGAAWKLLSGVREGQTQVDTPQIGDMAYWSHPIDLHFATKGLQGWPRLHFQVWSQDSFGRCQLAGYGFCHVPSSPGTHQLACPTWRPLGSWREQLARAFVGGGPQLLHGDTIYSGADRYRLHTAAGGTVHLEIGLLLRNFDRYGVEC”: the protein production result was “failed”.

With “MAEVRQNPVVIVPGVLFWDSLYEVMREALSTWIPAEKIAIVPVNLLDWLGFPPSPERSTNRVMAALDRTVRAMASRFPGEPVTIVAHSGGGTVAMIYLLERPFQGDVYAVNGLVGRLVTLGTPFHTHEHFAKIKTDFIFKHLGPEFFQKYQVVSVVSNQYKGSLDGGMIEKMCYMFYRGVTDDGNLAGDGVVPARSCFLDGAKNVTILECEHLPAPHTKWYGTKDGVEQWIEWL”, the protein production result is on record as “failed”.

In the case of “MAFDLQEQEQIDSLKAFWQQWGKLIGGAVLAVSLGYLGYKAYGMYQRGQSEKAAAAYEAVDDAVAAKDIAKLKSAAQQLQGEYAGTLYASRAALVLAKAAFDKNDPALAASQLEWVLKNGKDEELQAIARLRLASLLLDQKKFDGAIGELNQAHPAAFDAEFLELKGDVFVAKGDSNGARDAYKAALAKMQGESPNRQLVQTKLDALGG”, the protein production result is “failed”.

For “MAFNGAMSVGAQISDAVILAHSPKSCTHIMYQTISSAGRRTLFERGALLPVSLAPNLESTDMGEAEMIFGGMEKLEEKILELKARQPRAIVVVSACPAGIIGDDIGRTRRFSEPGLPVVTLKTDGNLAGDYLQGMLMAYTSLARQVIRLEHHHHHH”, the protein production result was “failed”.

Consider “MAFQVKIHQIRAFVEVARQGSIRGASRMLNMSQPALSKSIQELEEGLAAQLFFRRSKGVTLTDAGESFYQHASLILEELRAAQEDIRQRQGQLAGQINIGMGASISRSLMPAVISRFHQQHPQVKVRIMEGQLVSMINELRQGELDFTINTYYQGPYDHEFTFEKLLEKQFAIFCRPGHPAIGARSIKQLLDYSWTMPTPHGSYYKQLSELLDDQAQTPQVGVVCETFSACISLVAKSDFLSKLPEEMGCDPLHGQGLVMLPVSEILPKAAYYLIQRRDSRQTPLTASLITQFRRECGYLQS”, for which the protein production entry was “failed”.

As for “MAFRKPDEIAEAAIEAGMKKIKLPLPSLLVLGFLGGAFIALGYLLDIRVIGDLPKEWGSLSSLIGAAVFPVGLILVVLAGAELITGNMMSVAMALFSRKISVKELAINWGIVTIMNLIGALFVAYFFGHLVGLTETGPYLEKTIAVAQGKLDMSFGKVLISAIGCNWLVCLAVWLSFGAQDAAGKILGIWFPIMAFVAIGFQHVVANMFVIPAAIFAGSFTWGQFIGNIIPAFIGNVIGGAVFVGLIYFIAYHKKDRSRKEMKQVS”, the protein production entry is recorded as “failed”.

Take “MAFSVAYDLIPNKLIKDIDEMNQWLHDKINRAVYLVGFATQQSDYEYKLYELFKALDELEERLKKQLFLFGNQLTESDLYLLATLERFDNIYFCLFKCSLKRIADYPALFRYHNQLRGMESLASTYQPVLTKEHYFMSTMHVLGLEHHHHHH”: the protein production entry is “failed”.

With “MAGEKAQKKGKEKWKEKTWYTVESPPYLGSKEVTVALGEDPESMVNRIVEVPISDLTGNFKKSNEKALFRITGCEGTKCKTIFIGHYIGDDYIRRLVRRRKERIDIIEDVKTSDGSIITVKIVVVSDGKLTNTKKSEIRKALTSFIVSKGSQLSYADFVRYLIGDDSYNDMVEATKNIYPLRKIEIRKSELVSLSGMQEPQKNEPAPGGEAIAQNLEHHHHHH”, the protein production result was “not failed”.

With “MAGESGAPIRCRLLPIDMDAALGPPEQMAELEEDLTPMMAQYYELCRQYDDALVLFQVGDFYEAFCAAAKRVARLCEITLTQREDSTGEYPMAGIPIDNAESYVETLLDAGYRVAIADQVEDPDEVSGVVERAVTRIVTPGTLTESELLGGADNNYVAALTAGERYGLALLDISTGDCYATSVGSESAVADELSRFGPAEAIVGPDVDVDRDAVFGPACLVTRYDADAFAQDRAEDRVGQYFGPPERLLAGGAEIRACGGLLAYAEYTRGSSGAVGPDGEPVDPDVDPAGTLDYLNHLTRYDPREYMLLDAVAVESLELFKRRSVRGHENRTLVDTVDETACALGRRKLTDWLRRPLLDADRIEARHGAVAELQRDPATREELSALLAEVYDLERLISRVSRGRANARDLRSLAATLSVVPDIRDHLADADARLLADLHATLDPLAETREEIEAAIRPDPPQQVTEGGVIREGYDEELDRLRSTEQSGKEWIDELEASERERTGIDSLKVGHTSVHGYYIEVTNANLDAVPEDYQRRQTLKNSERYYTPALKEREDEILRAESAADDLEYDLFCAVRDEVADEAERVQALADRLARLDVLVSFAEVAAQYDYCRPTVGSDGIDVTAGRHPVVERTEDAFIPNDTHLGSGPVPASRDGSDDGVTADDIQPFLAVVTGPNMSGKSTYMRQVALICLLAQSGSFVPAKAADLPILDRVFTRVGASDDIAGGRSTFMIEMTELATILDAATENSLVLLDEVGRGTSTADGLAIARAVTEYLHDEVGAYTLFATHHHDLTAVAAALSGATNRHFETSREDGDVRFDHELAPGPAAASYGVEVASMAGVPDSVVERSRDLLADAETADTGVEATRETEVASEPRPGTRADSETDSTATETTGPTENGAASAPAGEATSDDHAQEVFQTNGAAAEDELPESVAQQLASLDVATMTPIEAMNALADLQDRIE”, the protein production result is “failed”.

Turning to “MAGGGNRRDEGSITIQSTNLFAALDTRKKKKKSDKAGKSKGSSKSREPEKEPEPQVYWAPTPLKVKSWADIDDEDDDDDYYATTAPPQSGWSTSLPSHTDSKDVHVEESESEEDILDEGDDDVEEEQEQETEVQVHPEPEVKKAPEVPAPPKEAERQLSKKERKKKELAELEALLADFGVAPKENNGLEESQEAGQEKKEDVNGEGEKKENAAGGESKASKKKKKKDKQKEVKESQEQQANNNADAVDEAAGSEPTEEESPIDVKERIKKLASMKKKKSGKEVDAAAKAAAEEAAARRKKLAAAKKKEKNHYNQQPVR”, the protein production entry is “failed”.

As to “MAGHTDNEITIAAPMELVWNMTNDIEKWPGLFSEYASVEVLGRDDDKVTFRLTMHPDADGKVWSWVSERVADPVTRTVRAQRVETGPFQYMNIVWEYAETAEGTVMRWTQDFAMKPDAPVDDAWMTDNINRNSRTQMALIRDRIEQAAGERRTASVLADLEHHHHHH”, the protein production entry was “not failed”.

For the sequence “MAGKLDPYRRKRHFGATPEPEGAHGHHAKAGAKPAARASARGTHPLRFVIQEHHARRLHYDFRLELDGTLKSWAVPKGPSFDPSVKRLAVHVEDHPLEYASFEGQIPEGHYGAGSVVVWDEGTWTPDGGVAQAREGYRAGKLTFRLDGEKLHGGWALVRSGRQEGRQEQWLLIKERDDDARSMDEFDVVGERPGSVHDGAASARADAKNGSARGSRSGQREKSGTSAARHDDHRHDGHAGTPIDPSRIEGAVRAPLPEHVAPQLATLVDGPPTQGDWCYELKFDGYRILARISGKGARRHVKLMTREGRDWTAKLRAQRDALAALDVDAAWLDGEAVVLGKNGLPDFQALQNAFGGGHSDEITLFVFDLPYLDGYDLRDAPLTARRALLEPLFADSDPTRLRFSPDLGNDVASLIASACDTGLEGLIGKRAESRYRAGRSPAWIKLKCRRRQEFVIGGYTEPSGSRHGFGALLLGVHEPAADGKRRRGPGPLRYVGRVGTGFDTRMLDRLTPILRKHERDTMPFDPPPRERSRTPVHWIEPVLVAECEFAEWTGDGIVRQAAFIALREDKPAARIVREVPKHTETEVQMEQRQTTRHERHKPKGAARAERDTSDASDGKHPARSRGSRRAEADDTGPDQLGRVRISHPERVIDSHSGTRKIDLARYWQWVAPWLLRDLKGRPVSLVRAPGDISGELFFQKHAERREIPFVTQHEGLDPGHGPLLSLDSVDALLGAAQMGTIELHTWNAHASNIERPDRIVFDLDPDPALPWSAMIDAAQLVRGLLDELGLISFCKTSGGKGLHVVVPITRHMGWDEVKDFSRAVAQHVAGALPDRFTATMGPKHRRGKIFIDYLRNGRGASTIAAYSVRARPGLGVSVPLRWDEVPDTTGGAQWTIDTLHERLDRLKRDPWDGYDDTRQRITAQMRARLGTS”, the protein production entry is “failed”.

“MAGKRKKPKDTDLPPRVYRGKSKYEFHPARGGSISLCPLDAPISQVWSDYEKVNDRLPEKVTLNKLTEQFLHSMDFCELAIETQKDYRKYSLKLLPVFGEMSPDNIRPEHIRKYMDKRGITSRTQANREKTFLSRVYRWGYERGMVKGNPCRGVKQFTEKARDRYITDEEYDAVYQVAPDVVRVAMEIAYLCLARQADVLALRRDQLREPGIYIKQGKTAARQIKAWSERLRDAITLAESLPLKSGISSVYIIHQRTGLRYTRDGFNSKWRKAREVAKKTYPELDFNFTFHDLKAKGVSDLEGTLSEKQAISGHKNMGQTARYDRKIKIVPVVGNQKK”: the protein production entry is listed as “failed”.

In the case of “MAGLPGSVALIIVATAVIWKGSAYFERAAERLSKYYGLPVAVHGAIVVAVGSSFPEISSVVISTVIHDEFSLGVGAIVGSAIFNLLVIPALAALSSEELRSTRDIVHKDAQFYIISVLILFIVFALGATYVPGGTNRAAILTPTLVAVPLMAYGIYVFLHQQDASEHVADETHSVRPGREWGMLGVGLVIITVGVEGMVQGALSLGVIFDTPTFLWGLTVIAAGTSLPDAFVSVRAAKDDDSVTSLTNVLGSNTFNLLVAIPVGVLLAGRATIDFLVAIPTMGFLGAATLVFIVFIRTDLELTDREAYTLLGLYVVFVCWMALESVGLIETVSGI”, the protein production entry is listed as “failed”.

As for “MAGNFDSEERSSWYWGRLSRQEAVALLQGQRHGVFLVRDSSTSPGDYVLSVSENSRVSHYIINSSGPRPPVPPSPAQPPPGVSPSRLRIGDQEFDSLPALLEFYKIHYLDTTTLIEPVSRSRQGSGVILRQEEAEYVRALFDFNGNDEEDLPFKKGDILRIRDKPEEQWWNAEDSEGKRGMIPVPYVEKYRPASASVSALIGGNQEGSHPQPLGGPEPGPYAQPSVNTPLPNLQNGPIYARVIQKRVPNAYDKTALALEVGELVKVTKINVSGQWEGECNGKRGHFPFTHVRLLDQQNPDEDFS”, the protein production entry is on record as “failed”.

“MAGRRRRPTTDRTIGGLSFSQRELRDLLVAWLALGLAFTFFLEREFRRIVFGQFGGLSGAEIASTFAVSLLTVGVGFLLHELAHKVVAVRFGQIAAFKADYRMLGFAVLGGLVGFLFAAPGAVVHRGRLTAKQHGLIAVAGPVTNLALAVVFLVPFFLTASMGIGGFLRELTEMGLQINLLLAGFNMLPFGPLDGRTVREWSTPVFLAVAVPSILLGVGALFVL”: the protein production result is recorded as “failed”.

With “MAGSVGEETEPEWIKRVKLEGAVPCLKPDDNCKNGWTTPSPDTFMVRGPKYFSDKVKIPAGDFLLKPLGFDWIKGPKKLSEILSYPSSRIRKVIDEEFQKDGTKPFVWAFNLQLPHKDNYSAVAYFVTTEPILEGSLMDRFLKGDDGFKKSRLKLIANIVKGPWIVRKAVGEQAICVIGRALSCKYVSGENFVEIDVDIGSSMVASAIVHLAFGYVTTLTVDLAFLIESQTEAELPEKLLGAVRFSELQTESATSIELSSSTSNDQWDQTTSERSSWWKSIGNGFSNLLNQDTANMNNTSHGDIQKDEHVQKQ”, the protein production result is given as “failed”.

Consider “MAHEAQKAIARNSLLIRSLPEQHVDALLSQAVWRSYDRGETLFLQEEKAQAIHVVIDGWVKLFRMTPTGSEAVVSVFTRGESFGEAVALRNTPYPVSAEAVTPCEVMHIPSPVFVSLMRRDPEICISILATTFGHLHSLVAQLEQLKAQTGAQRVAEFLLELCDCDTGACEVTLPYDKMLIAGRLGMKPESLSRAFSRLKAAGVTVKRNHAEIEDIALLRDYAESDPADSWSKS”, for which the protein production result was “not failed”.
